Laboratory results as given in paper doi:10.1101/2023.12.01.569227 (bioRxiv, 2023).
Substitutions are numbered along the chain they refer to.

B1: VHH-72 (VHH)
VHH: QVQLQESGGGLVQAGGSLRLSCAASGRTFSEYAMGWFRQAPGKEREFVATISWSGGSTYYTDSVKGRFTISRDNAKNTVYLQMNSLKPDDTAVYYCAAAGLGTVVSEWDYDYDYWGQGTQVTVSS
B2: Seq1 (VHH)
VHH: B1 VHH with Y32T, G56R, S57G, A98Y, L101Y, T103V
B3: Seq8 (VHH)
VHH: B1 VHH with R27Y, T28G, G56R, A98R, L101W, T103V
B4: Seq7 (VHH)
VHH: B1 VHH with R27L, T28K, Y32T, G56R, A98R, L101Y, T103V
B5: Seq11 (VHH)
VHH: B1 VHH with T28K, G56R, S57L, A98G, L101Y, T103V
B6: Seq4 (VHH)
VHH: B1 VHH with T28S, G56R, S57A, A98R, L101Y, T103V
B7: Seq5 (VHH)
VHH: B1 VHH with T28M, G56K, S57G, A98R, L101F, T103V, V104Y
B8: Seq2 (VHH)
VHH: B1 VHH with T28G, S57G, A98R, L101F, T103V, V104W
B9: Seq6 (VHH)
VHH: B1 VHH with T28L, G56R, A98K, L101W, T103V
B10: Seq3 (VHH)
VHH: B1 VHH with T28M, Y32T, G56R, S57G, A98G, L101Y, T103V, V104Y

These binders were tested against SARS-CoV-1 RBD (SARS-CoV-1 (SARS-CoV), Urbani, UniProt P59594, biotinylated with an EZ-Link NHS-PEG4 biotinylation kit) (assay: BLI).
B1: binds.
B2: binds.
B3: binds.
B4: binds.
B5: binds.
B6: binds.
B7: binds.
B8: binds.
B9: binds.
B10: binds.

These binders were tested against SARS-CoV-2 RBD (SARS-CoV-2, Wuhan-Hu-1, UniProt P0DTC2, biotinylated with an EZ-Link NHS-PEG4 biotinylation kit) (assay: BLI).
With B1 the “fold weaker binding than to SARS-CoV-1 RBD” value was > 5 fold.
